Measurements published in publication PMC4753422.

Molecular target: papain (UniProt P00784)
Assay: enzyme inhibition kinetics (papain proteolysis progress curves); anti-papain activity from papain proteolysis progress curves with the fluorigenic substrate Z-Phe-Arg-methylcoumarin; apparent (said of the Cysta-tag's constant)

Chain of UniProt P00784 (P00784 134-345): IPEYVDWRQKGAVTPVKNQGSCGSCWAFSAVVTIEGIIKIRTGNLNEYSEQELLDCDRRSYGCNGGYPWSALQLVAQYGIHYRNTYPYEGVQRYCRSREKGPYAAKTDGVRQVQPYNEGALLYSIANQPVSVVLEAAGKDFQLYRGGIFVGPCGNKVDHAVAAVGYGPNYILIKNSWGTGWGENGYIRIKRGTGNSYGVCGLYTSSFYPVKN

Kd | Substance
0.042 µM | Cysta-tag (Ala-62-(His)6-Gly-63 variant of SlCYS8) (domain or fragment)
0.043 µM | tomato multicystatin domain SlCYS8 (domain or fragment)
